Experimental data taken from PMC12005725.
Blank lines part the entries; values can stand above or below the substance they belong to.

Key:
[1] = molecular target: microtubule (polymerized tubulin, taxol-stabilised) (UniProt P02550); experiment: single-molecule fluorescence (smFRET with Alexa-ATP, TIRF) on microtubules; microtubules on a poly-L-lysine-coated slide, 100 pM ATTO488-kinesin, 500 nM Alexa Fluor 647 ATP, 150 mM KCl, 20 uM taxol, BRB12, 22 C, 10 ms exposure
[2] = molecular target: microtubule (polymerized tubulin, taxol-stabilised) (UniProt P02550); experiment: stopped-flow turbidity (light scattering); oxidized condition (10 uM CuCl2, 20 uM o-phenanthroline); nucleotide-free complex of 3.2 uM kinesin and 4 uM microtubule (20 uM taxol, 0.1 U/ml apyrase), 150 mM KCl added, rapidly mixed with 1 mM ATP plus 150 mM KCl; BRB25 pH 6.8, 25 C; turbidity at 340 nm, burst equation
[3] = molecular target: microtubule (polymerized tubulin, taxol-stabilised) (UniProt P02550)
[4] = molecular target: microtubule (polymerized tubulin, taxol-stabilised) (UniProt P02550); experiment: stopped-flow turbidity (light scattering); reduced condition (10 mM DTT); nucleotide-free complex of 3.2 uM kinesin and 4 uM microtubule (20 uM taxol, 0.1 U/ml apyrase), 150 mM KCl added, rapidly mixed with 1 mM ATP plus 150 mM KCl; BRB25 pH 6.8, 25 C; turbidity at 340 nm, burst equation
[5] = molecular target: microtubule (polymerized tubulin, taxol-stabilised) (UniProt P02550); remark: listed apart in the source
[6] = molecular target: microtubule (polymerized tubulin, taxol-stabilised) (UniProt P02550); experiment: high-speed total internal reflection dark-field microscopy of gold-labeled kinesin; microtubules held on glass by protein A and anti-alpha-tubulin antibody, 3 nM gold-labeled kinesin, BRB12 with 20 mM KCl and 1-1000 uM ATP, 24-26 C, 20,000 fps; bound and unbound states of the gold-labeled WT head while the E236A head stays bound
[7] = molecular target: axonemes (purified from sea urchin sperm flagella) (sea urchin); experiment: single-molecule fluorescence microscopy (TIRF), dwell time; oxidized condition (no 2-mercaptoethanol); axonemes on the slide, 200 or 500 pM GFP-kinesin in solution, 1 mM ATP, 100 mM KCl, BRB12; 10 ms resolution; k2_SMF is the inverse of the mean dwell time
[8] = molecular target: axonemes (purified from sea urchin sperm flagella) (sea urchin); experiment: single-molecule fluorescence microscopy (TIRF), dwell time; reducing condition (70 mM 2-mercaptoethanol); axonemes on the slide, 200 or 500 pM GFP-kinesin in solution, 1 mM ATP, 100 mM KCl, BRB12; 10 ms resolution; k2_SMF is the inverse of the mean dwell time

UniProt P02550, sequence (P02550 whole entry, looked up): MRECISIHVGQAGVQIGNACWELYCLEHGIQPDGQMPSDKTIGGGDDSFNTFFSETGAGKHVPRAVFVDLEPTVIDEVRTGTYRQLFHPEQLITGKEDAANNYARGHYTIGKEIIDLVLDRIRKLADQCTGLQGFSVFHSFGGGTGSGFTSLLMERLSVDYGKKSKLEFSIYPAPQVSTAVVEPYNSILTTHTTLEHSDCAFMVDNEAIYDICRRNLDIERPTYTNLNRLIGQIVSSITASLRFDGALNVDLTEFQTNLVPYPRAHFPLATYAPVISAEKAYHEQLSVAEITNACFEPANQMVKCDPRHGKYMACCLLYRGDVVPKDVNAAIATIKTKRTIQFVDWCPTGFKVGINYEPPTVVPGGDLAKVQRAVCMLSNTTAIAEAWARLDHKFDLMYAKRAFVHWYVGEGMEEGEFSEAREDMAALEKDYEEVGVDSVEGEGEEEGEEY

Substance: ATTO488-labeled 'wild-type' monomer (Cys-light K349 monomeric kinesin with Cys55) (from UniProt P33176 1-349) (domain or fragment)
inverse of the mean dwell time for head dissociation (Alexa-ATP-bound state ending in detachment from the microtubule) [1]: 89.7 s^–1

Substance: Cys-light K339 C47/C328 monomer, reduced (un-crosslinked) (from UniProt P33176 1-339) (domain or fragment)
k2 (ATP-induced dissociation rate from microtubule, light scattering) [4]: 51.5 s⁻¹
Km(MT) of the steady-state microtubule-activated ATPase, reduced condition [3]: 0.28 µM

Substance: Cys-light K339 C222/C334 monomer, oxidized (disulfide-crosslinked; rear head crosslink) (from UniProt P33176 1-339) (domain or fragment)
Km(MT) of the steady-state microtubule-activated ATPase, oxidized condition [3]: 0.2 µM

Substance: Cys-light K339 C222/C334 monomer, reduced (un-crosslinked) (from UniProt P33176 1-339) (domain or fragment)
k2 (ATP-induced dissociation rate from microtubule, light scattering) [4]: 69.3 s⁻¹
Km(MT) of the steady-state microtubule-activated ATPase, reduced condition [3]: 0.23 µM

Substance: Cys-light K339 monomeric kinesin with no cysteine introduction (WT) (from UniProt P33176 1-339) (domain or fragment)
k2 (ATP-induced dissociation rate from microtubule, light scattering) [2]: 59.1 s⁻¹
k2 (ATP-induced dissociation rate from microtubule, light scattering) [4]: 52.1 s⁻¹
Km(MT) of the steady-state microtubule-activated ATPase, oxidized condition [3]: 0.36 µM
Km(MT) of the steady-state microtubule-activated ATPase, reduced condition [3]: 0.31 µM

Substance: E236A–WT heterodimer with a 7 poly-Gly insertion (G7), WT head labeled with a gold nanoparticle (from UniProt P33176 1-490; P33176 1-490) (complex)
Km (MT) of the microtubule-activated ATPase of the heterodimer (G7) [5]: 0.18 µM
kcat of the inverse bound dwell time against ATP, taken as the ATP-induced detachment rate k2 of the front WT head [6]: 7.6 s^–1

Substance: E236A–WT heterodimer without neck-linker extension (G0), WT head labeled with a gold nanoparticle (from UniProt P33176 1-490; P33176 1-490) (complex)
Km (MT) of the microtubule-activated ATPase of the heterodimer (G0) [5]: 0.54 µM
dwell time of the microtubule-bound state of the front WT head at 10 µM ATP [6]: 1.1 s
kcat of the inverse bound dwell time against ATP, taken as the ATP-promoted detachment rate k2 of the front WT head [6]: 6.3 s^–1
mean dwell time of the microtubule-bound state of the front WT head at 1 mM ATP [6]: 160 ms
mean dwell time of the unbound state of the front WT head at 1 mM ATP [6]: 11 ms

Substance: GFP-fused K339 Cys-light C4/C330 kinesin, oxidized (crosslinked) (from UniProt P33176 1-339) (domain or fragment)
k2 SMF (inverse of the mean dwell time on the microtubule, 1 mM ATP) [7]: 58.4 s⁻¹

Substance: GFP-fused K339 Cys-light C47/C328 kinesin, oxidized (front head crosslink) (from UniProt P33176 1-339) (domain or fragment)
fold increase of the binding frequency to the microtubule after crosslinking [7]: 4 fold
k2 SMF (inverse of the mean dwell time on the microtubule, 1 mM ATP) [7]: 2.3 s⁻¹

Substance: GFP-fused K339 Cys-light C47/C328 kinesin, reduced (from UniProt P33176 1-339) (domain or fragment)
k2 SMF (inverse of the mean dwell time on the microtubule, 1 mM ATP) [8]: 42.1 s⁻¹

Substance: GFP-fused K339 Cys-light C47/C335 kinesin, oxidized (crosslinked) (from UniProt P33176 1-339) (domain or fragment)
k2 SMF (inverse of the mean dwell time on the microtubule, 1 mM ATP) [7]: 22.5 s⁻¹

Substance: GFP-fused K339 Cys-light C47/C335 kinesin, reduced (from UniProt P33176 1-339) (domain or fragment)
k2 SMF (inverse of the mean dwell time on the microtubule, 1 mM ATP) [8]: 52.1 s⁻¹

Substance: GFP-fused K339 Cys-light C222/C334 kinesin, oxidized (rear head crosslink) (from UniProt P33176 1-339) (domain or fragment)
fold reduction of the binding frequency to the microtubule after crosslinking [7]: 6 fold
k2 SMF (inverse of the mean dwell time on the microtubule, 1 mM ATP) [7]: 57.1 s⁻¹

Substance: GFP-fused K339 Cys-light C222/C334 kinesin, reduced (from UniProt P33176 1-339) (domain or fragment)
k2 SMF (inverse of the mean dwell time on the microtubule, 1 mM ATP) [8]: 47.2 s⁻¹

Other lines, results leading:

k2 (ATP-induced dissociation rate from microtubule, light scattering) [2]: 80.8 s⁻¹
Km(MT) of the steady-state microtubule-activated ATPase, oxidized condition [3]: 8.36 µM
Substance: Cys-light K339 C4/C330 monomer, oxidized (disulfide-crosslinked between cover strand and neck linker) (from UniProt P33176 1-339) (domain or fragment)

k2 (ATP-induced dissociation rate from microtubule, light scattering) [4]: 68.6 s⁻¹
Km(MT) of the steady-state microtubule-activated ATPase, reduced condition [3]: 0.42 µM
Substance: Cys-light K339 C4/C330 monomer, reduced (un-crosslinked) (from UniProt P33176 1-339) (domain or fragment)

k2 (ATP-induced dissociation rate from microtubule, light scattering) [2]: 7 s⁻¹
Km(MT) of the steady-state microtubule-activated ATPase, oxidized condition [3]: 0.13 µM
Substance: Cys-light K339 C47/C328 monomer, oxidized (disulfide-crosslinked; front head crosslink) (from UniProt P33176 1-339) (domain or fragment)

k2 (ATP-induced dissociation rate from microtubule, light scattering) [2]: 19.4 s⁻¹
Km(MT) of the steady-state microtubule-activated ATPase, oxidized condition [3]: 0.1 µM
Substance: Cys-light K339 C47/C335 monomer, oxidized (disulfide-crosslinked; loose backward crosslink) (from UniProt P33176 1-339) (domain or fragment)

k2 (ATP-induced dissociation rate from microtubule, light scattering) [4]: 41.6 s⁻¹
Km(MT) of the steady-state microtubule-activated ATPase, reduced condition [3]: 0.33 µM
Substance: Cys-light K339 C47/C335 monomer, reduced (un-crosslinked) (from UniProt P33176 1-339) (domain or fragment)

Km (MT) of the microtubule-activated ATPase of the heterodimer (G12) [5]: 0.14 µM
dwell time of the WT head bound at the front-binding site at 1 mM ATP [6]: 111 ms
dwell time of the WT head bound at the rear-tubulin-binding site at 1 mM ATP [6]: 19 ms
kcat of the inverse bound dwell time against ATP, taken as the ATP-induced detachment rate k2 of the front WT head [6]: 9.3 s^–1
Substance: E236A–WT heterodimer with a 12 poly-Gly insertion (G12), WT head labeled with a gold nanoparticle (from UniProt P33176 1-490; P33176 1-490) (complex)

k2 SMF (inverse of the mean dwell time on the microtubule, 1 mM ATP) [8]: 59.5 s⁻¹
Substance: GFP-fused K339 Cys-light C4/C330 kinesin, reduced (from UniProt P33176 1-339) (domain or fragment)

k2 SMF (inverse of the mean dwell time on the microtubule, 1 mM ATP) [8]: 44 s⁻¹
k2 SMF (inverse of the mean dwell time on the microtubule, 1 mM ATP) [7]: 41.6 s⁻¹
Substance: GFP-fused K339 Cys-light kinesin (WT, no cysteine introduction) (from UniProt P33176 1-339) (domain or fragment)
